Test [1] concerns the target MHC class II (HLA-DR1) on human LG-2 cells (human). Put plainly: Scatchard analysis, 125I-labelled toxin on LG-2 cells; high affinity site.
Test [2] shares this target. Put plainly: Scatchard analysis, 125I-labelled toxin on LG-2 cells; low affinity site.
Test [3] has the same target.
Test [4] shares this target. Put plainly: Scatchard analysis, 125I-labelled toxin on LG-2 cells.

Read-outs that look alike come from different tables or passages of the source.

B1: recombinant SPE-G superantigen (mature) (other)
chain: DENLKDLKRSLRFAYNITPCDYENVEIAFVTTNSIHINTKQKRSECILYVDSIVSLGITDQFIKGDKVDVFGLPYNFSPPYVDNIYGGIVKHSNQGNKSLQFVGILNQDGKETYLPSEAVRIKKKQFTLQEFDFKIRKFLMEKYNIYDSESRYTSGSLFLATKDSKHYEVDLFNKDDKLLSRDSFFKRYKDNKIFNSEEISHFDIYLKTH
Turning to B1, the Kd – broadly, the equilibrium constant for the complex coming apart – was 16 nM in test [1], 1000 nM in test [2] and 15 to 65 nM in test [3].

B2: recombinant SEB (other)
chain: ESQPDPKPDELHKSSKFTGLMENMKVLYDDNHVSAINVKSIDQFLYFDLIYSIKDTKLGNYDNVRVEFKNKDLADKYKDKYVDVFGANYYYQCYFSKKTNDINSHQTDKRKTCMYGGVTEHNGNQLDKYRSITVRVFEDGKNLLSFDVQTNKKKVTAQELDYLTRHYLVKNKKLYEFNNSPYETGYIKFIENENSFWYDMMPAPGDKFDQSKYLMMYNDNKMVDSKDVKIEVYLTTKKK
As for B2, the Kd in test [4] amounted to 340 nM.

B3: recombinant TSST (other)
chain: STNDNIKDLLDWYSSGSDTFTNSEVLDNSLGSMRIKNTDGSISLIIFPSPYYSPAFTKGEKVDLNTKRTKKSQHTSEGTYIHFQISGVTNTEKLPTPIELPLKVKVHGKDSPLKYGPKFDKKQLAISTLDFEIRHQLTQIHGLYRSSDKTGGYWKITMNDGSTYQSDLSKKFEYNTEKPPINIDEIKTIEAEIN
Take B3: in test [4], binding was put at a Kd of 130 nM.

B4: recombinant SEA (other)
chain: SEKSEEINEKDLRKKSELQGTALGNLKQIYYYNEKAKTENKESHDQFLQHTILFKGFFTDHSWYNDLLVDFDSKDIVDKYKGKKVDLYGAYYGYQCAGGTPNKTACMYGGVTLHDNNRLTEEKKVPINLWLDGKQNTVPLETVKTNKKNVTVQELDLQARRYLQEKYNLYNSDVFDGKVQRGLIVFHTSTEPSVNYDLFGAQGQYSNTLLRIYRDNKTINSENMHIDIYLYTS
B4: the Kd in test [1] was 36 nM; in test [2], 1000 nM.

These data come from patent publication US20050153376A1 (AUCKLAND UNISERVICES, published 2005).
